Laboratory results: paper PMC8336524, “Yeast Bromodomain Factor 1 and Its Human Homolog TAF1 Play Conserved Roles in Promoting Homologous Recombination” (Advanced Science, 2021)

B1: GST‐Bdf1 residues 1–317 (domain or fragment, yeast, UniProt P35817 1-317, looked up)
chain: MTDITPVQNDVDVNGNNVNDDVSSNLKRPIDQGDPSNGLAEEENPANNQLHLKKARLDGDALTSSPAGLAENGIEGATLAANGENGYNATGSGAEDEQQGLKKEEGGQGTKQEDLDENSKQELPMEVPKEPAPAPPPEPDMNNLPQNPIPKHQQKHALLAIKAVKRLKDARPFLQPVDPVKLDIPFYFNYIKRPMDLSTIERKLNVGAYEVPEQITEDFNLMVNNSIKFNGPNAGISQMARNIQASFEKHMLNMPAKDAPPVIAKGRRSSAQEDAPIVIRRAQTHNGRPKRTIHPPKSKDIYPYESKKPKSKRLQQA
notes: source: E. coli (BL21), pGEX4T3; immobilized onto GSH‐sepharose beads
B2: GST‐Bdf1 residues 1–295 (domain or fragment, yeast, UniProt P35817 1-295, looked up)
chain: MTDITPVQNDVDVNGNNVNDDVSSNLKRPIDQGDPSNGLAEEENPANNQLHLKKARLDGDALTSSPAGLAENGIEGATLAANGENGYNATGSGAEDEQQGLKKEEGGQGTKQEDLDENSKQELPMEVPKEPAPAPPPEPDMNNLPQNPIPKHQQKHALLAIKAVKRLKDARPFLQPVDPVKLDIPFYFNYIKRPMDLSTIERKLNVGAYEVPEQITEDFNLMVNNSIKFNGPNAGISQMARNIQASFEKHMLNMPAKDAPPVIAKGRRSSAQEDAPIVIRRAQTHNGRPKRTIHP
notes: as for B1

Key:
[1] = molecular target: acetylated H4 peptide (1–22 aa) (UniProt P02309); experiment: ITC; protein (≈50 µM DBD or 2YF‐DBD, ≈20 µM TAF1‐DBD) titrated with H4 peptide (≈1 mM or 0.5 mM) at 25 °C; 100 mM NaCl, 50 mM Tris‐HCl pH 7.5; 19 injections; One Set of Sites model
6xHis‐Rfa1 = molecular target: T1, 6xHis‐Rfa1 (yeast, UniProt P22336 1-621); experiment: pull-down; GST or GST fusion proteins immobilized on GSH‐sepharose beads, incubated with His‐tagged proteins at 4 °C for 4 h; wash 20 mM Tris–HCl pH 7.4, 200 mM NaCl, 0.5 mM EDTA; Western blot with anti‐His antibody; details: both partners purified
T1 construct: Rfa1, subunit of Replication Protein A (RPA), yeast; also called RPA (in the text on the truncations); source: E. coli (BL21), pET30a(+)
T1 sequence (P22336 whole entry, the tested form may be a part): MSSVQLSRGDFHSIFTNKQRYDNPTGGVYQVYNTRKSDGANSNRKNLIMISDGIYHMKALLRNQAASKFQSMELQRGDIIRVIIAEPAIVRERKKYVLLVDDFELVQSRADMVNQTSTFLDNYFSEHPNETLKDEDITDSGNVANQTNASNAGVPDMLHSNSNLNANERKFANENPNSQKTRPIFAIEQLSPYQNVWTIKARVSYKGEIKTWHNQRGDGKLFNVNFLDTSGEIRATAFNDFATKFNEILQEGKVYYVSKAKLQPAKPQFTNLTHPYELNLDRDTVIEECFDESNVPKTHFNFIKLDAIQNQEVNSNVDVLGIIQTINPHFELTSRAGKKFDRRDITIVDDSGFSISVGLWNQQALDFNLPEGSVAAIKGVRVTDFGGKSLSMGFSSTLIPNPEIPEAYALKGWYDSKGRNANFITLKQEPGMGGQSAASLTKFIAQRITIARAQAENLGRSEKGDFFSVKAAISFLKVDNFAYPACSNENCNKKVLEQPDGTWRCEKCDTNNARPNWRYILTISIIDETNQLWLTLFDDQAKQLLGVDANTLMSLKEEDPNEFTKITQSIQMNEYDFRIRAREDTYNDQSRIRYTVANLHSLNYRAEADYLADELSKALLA

Row | Molecule | Kd [1] [µM] | binding result (6xHis‐Rfa1)
1 | DBD of Bdf1 used for ITC (domain or fragment) | 6 | –
2 | TAF1‐DBD used for ITC (domain or fragment) | 5 | –
3 | B1 | – | binds
4 | B2 | – | binds
